# US11547673
# Key:
# [1] = target: human ACE2 peptidase domain (amino acids 1-615 of human ACE2 with C-terminal His-10 and Avi tags) (human) (UniProt Q9BYF1); test: biolayer interferometry; the reference KD of monomeric RBD is a literature value
# [2] = target: human ACE2 peptidase domain (amino acids 1-615 of human ACE2 with C-terminal His-10 and Avi tags) (human) (UniProt Q9BYF1)
# Sequence of UniProt Q9BYF1 (Q9BYF1 18-615 limits assumed): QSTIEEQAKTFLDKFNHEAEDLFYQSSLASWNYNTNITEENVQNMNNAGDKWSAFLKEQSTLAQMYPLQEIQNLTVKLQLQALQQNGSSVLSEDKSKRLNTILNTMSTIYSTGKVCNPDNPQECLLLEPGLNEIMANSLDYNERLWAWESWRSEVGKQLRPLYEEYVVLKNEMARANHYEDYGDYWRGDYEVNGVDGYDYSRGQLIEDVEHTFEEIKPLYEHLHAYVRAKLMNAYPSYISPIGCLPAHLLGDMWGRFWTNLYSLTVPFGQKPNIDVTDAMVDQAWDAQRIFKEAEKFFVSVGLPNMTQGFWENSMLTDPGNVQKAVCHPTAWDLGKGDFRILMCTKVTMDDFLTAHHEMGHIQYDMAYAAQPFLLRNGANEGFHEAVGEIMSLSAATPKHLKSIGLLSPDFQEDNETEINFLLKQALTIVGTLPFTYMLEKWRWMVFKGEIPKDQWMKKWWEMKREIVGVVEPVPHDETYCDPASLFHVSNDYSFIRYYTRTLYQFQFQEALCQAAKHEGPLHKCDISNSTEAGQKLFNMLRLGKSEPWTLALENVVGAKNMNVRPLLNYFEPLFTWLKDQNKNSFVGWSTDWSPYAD
substance,measurement,setting,value
trimerised SARS-CoV-2 S receptor-binding domain fused to the T4 fibritin foldon trimerisation domain (ligand; other documents disagree on this pair),fold of the reported KD of monomeric RBD,[1],1000 fold
same,Kd,[2],5 pM
